Measured values reported in the DeepSol protein solubility set.

Test: soluble on expression in E. coli; label from the status in PepcDB or PDB records

Sequence | soluble on expression in E. coli
MGSDKIHHHHHHVEYRLPAEGSNLVGENQYYVVPEGKLTLEQIASQFQLGLTNLLEANPGVDPFLPKPGSTLLIPHQLILPNAKREGVVINSAEMRLYYYPKGKNTVEVLPIGIGQIGKDTPENWVTTVQRKRANPTWTPTVNIRKSYAAKGITLPAVWPAGADNPMGLFALYVGNLYAVHGTNATFGIGLRVSSGCVRLRDEDIEHLYNSVPVGTRVEFINQPIKATEEPDGNRYLEVHEPLSRTQAEFDSLEPVALSFDKAMTRFVAHPDTDSFTLKRLLEQRTGMPTRINP | not soluble
MKKKIESYQGAAGGWGAVKSVANAVRKQMDIRQDVIAMFDMNKPEGFDCPGCAWPDPKHSASFDICENGAKAIAWEVTDKQVNASFFAENTVQSLLTWGDHELEAAGRLTQPLKYDAVSDCYKPLSWQQAFDEIGARLQSYSDPNQVEFYTSGRTSNEAAFLYQLFAREYGSNNFPDCSNMCHEPTSVGLAASIGVGKGTVLLEDFEKCDLVICIGHNPGTNHPRMLTSLRALVKRGAKMIAINPLQERGLERFTAPQNPFEMLTNSETQLASAYYNVRIGGDMALLKGMMRLLIERDDAASAAGRPSLLDDEFIQTHTVGFDELRRDVLNSEWKDIERISGLSQTQIAELADAYAAAERTIICYGMGITQHEHGTQNVQQLVNLLLMKGNIGKPGAGICPLRGHSNVQGDRTVGITEKPSAEFLARLGERYGFTPPHAPGHAAIASMQAICTGQARALICMGGNFALAMPDREASAVPLTQLDLAVHVATKLNRSHLLTARHSYILPVLGRSEIDMQKNGAQAVTVEDSMSMIHASRGVLKPAGVMLKSECAVVAGIAQAALPQSVVAWEYLVEDYDRIRNDIEAVLPEFADYNQRIRHPGGFHLINAAAERRWMTPSGKANFITSKGLLEDPSSAFNSKLVMATVRSHDQYNTTIYGMDDRYRGVFGQRDVVFMSAKQAKICRVKNGERVNLIALTPDGKRSSRRMDRLKVVIYPMADRSLVTYFPESNHMLTLDNHDPLSGIPGYKSIPVELEPSN | not soluble
MAHHHHHHMVNQTPHIVILSYDEEKINKFVSFLMSTFEPLESYEKAETYKLTFDRNDFHSGNGSSFAFKEVAKVAIVNKYYSAEVTISSCVVQSGENALRVEGSMPNGGLPDEANLPNGGLPDEANTPKMDLPDGAKPELQNQANELDAKDILCESVIFLFNNFTKKEKNIVNGNPFRSYDEECVEYIKDPESQQMIRNTHFDFSNLYKDVGIKIAIFPSSLEKDNKDIVNFFSDYFIECLYINYESAFLAEGGGQDDGHPSCPEEGDQNVKEEKTLLREFEEQEDDERLVEALHCHMWKGLQIKRDHLIIQHRGDFPMGEAFKGDEAARKGEKTPQKDEASPNGEKTPQKDEAAPNGENPPQRDAPATSGAAKIDLSGTLANSAKTPEGQKEELFMENFNKIVEKIRVAKMENKNCSNHAARRKKAEEIIFELQQYFCDIDGE | not soluble
MFDRYESGERAILVHVFFSQDRDTDDLLEFESLVSSAGIESLQVVTGSRKAPHPKYFVGEGKAEEIAQAVKETGAFVVLFNHALTPAQERNLERLCECRVIDRTGLILDIFAQRARTHEGKLQVELAQLRHLATRLVRGWTHLERQKGGIGLRGPGETQLETDRRLLRNRISQILLRLERVEKQREQGRRSRVRADVPTVSLVGYTNAGKSTLFNKITSAGVYVADQLFATLDPTLRRIQVDDVGDTVLADTVGFIRQLPHDLVAAFKATLQETRQASLLLHVVDAADPRLDENIDAVNDVLAEIEADEIPALLVMNKIDMLDDFVPRIDRNEENLPIRVWLSAQTGDGIPLLFQALTERLSGEIAQYTLHLPPQAGRLRSRFYQLQAIEKEWIEEDGQIGLVIRMPIADWRRLCKKEQELMDYIALEHHHHHH | not soluble
MTYTTRQIGAKNTLEYKVYIEKDGKPVSAFHDIPLYADKENNIFNMVVEIPRWTNAKLEITKEETLNPIIQDTKKGKLKFVRNCFPHHGYIHNYGAFPQTWEDPNVSHPETKAVGDNDPIDVLEIGETIAYTGQVKQVKALGIMALLDEGETDWKVIAIDINDPLAPKLNDIEDVEKYFPGLLRATNEWFRIYKIPDGKPENQFAFSGEAKNKKYALDIIKETHDSWKQLIAGKSSDSKGIDLTNVTLPDTPTYSKAASDAIPPASLKADAPIDKSIDKWFFISGSV | soluble
MIGAQVDMHFTKGYPSVDLSDPWNKNVLLEVVRMAIPLMKHPNYYRINGKPAIFIWNEAIFYNRAEAYREIKEMVKRDLGVEPYIIADVLPRIMADRKVIPGTPEGEWYIRNLLLRKNDGGDKFIDAYTSWIGFYSVQGETALTPREIEMYSKLYREHVEAWSSYTNGRNKCFIPTVSPGFDRTFDKSFNQQFPIPRDPKRFAEMLKIALDSLGNCKEIRIDTWNDFYEGTFIEPSVSDGFTYLEVLEEFIKELKENLEHHHHHH | not soluble
MGSDKIHHHHHHMNQNVTSKVYPWQQTMWETLTTRFPNIGHGLLFYGKQGCGKHAFAKHFLAWVLCLNKQPQGACGECSSCQWLKSDTHPNYVHITTDEENKKQNAKIKIEKIRDLLPFVQQTGEGWRVVVIEPAEALNLASSNALLKTLEEPGERVVLILLADHYLKLPATIRSRLQHFALDRISYTEATSYLNEHLAETASVPAELLLGLSNDMPLQAVEIATSDWFAKRQSFLEDWTKVVNQKNMPLFYSAKWQKELNFSDFMMLLEYLLGDLICVKLNQPQKNIDLQFDQLAQNYNLESLFSLYEELQQSKRLVEQNVQTQLIIDQLFIKLMNV | not soluble
MKTRHYSLLIFLAGSAFFPEISAQLANCQNLGTPINSTDCLCPGFVDGRLCENIKCQRWAVPDKNRCACAPGWYDRYCGLRGCRPPNEEQMDLEKRSFIIVFNTKTTMKMQLDSLKNNFKEMISKVSKNSKGVVNNWIENYIVYGFVESQSHTKIQKLFTENPDDVISFFNNMTLFDGDDTQPVLTAIQNAQQTYPKMQAHALVLVFTDSPASDATAWSHRFTDKNAEQSVLQISLIWRSKYSFFLSLPARTNFLSNGVDVYRRLSLTNHGDTFFIKDSNDLSNALLNVIGVQYFPENVQIGYGKTTDEQLQTYVDNDGDLVYILLTIRSSLQTTVPSISEATIVAEGDSYRLYSPASNIGDTVTIHCQNGTTYNYRMFIQSKNTLLFNYNDDMHIDVGNGMAVIGAKSIFLGTKNSANRDHNAHDLSGNANELTTNVSKNNTDTCSKKNLDSINDPRLQEPRQFIFILEQHSGNEQVYKTLAREINDILELVNSSTTSEYKKEFTLIAHDSAESHVLFSSYNPKIFAEKFSKLVNSLELTDNLDNTMGLLSIIHAQKMNILPTALVYYFTNQAVKNAQNLTRNWDLVKRDIEINFLTIADGVTTEIFALPKQLELVQKMTNGRLIPLGKTENSIFPIFKDMMTVTTLTTDNEQYNCHDTALEIDGYFEDGASVSISNYVTYKNPNFMSIRIDSKLFASGKWKLSALSTTGGCQITVRQKTSVGLVLGFTAATNDDNASTQIISQRSSSDSQPIFTTLKTTNHIVPTDLEIQIVNRQRYDQPVSYVKLGNAQRDTNSCSYDFISDSVVVPKSTLTMWIVSATDNAGKLILHRIFYYYLPRILSEFAVVLQGFMEIFVKLCSCSPPTLLQCLQYRPLQSQHK | not soluble
MGFDASVLKSVLEQFVDEIGEESVDLIEDRPRFAHAVVVVTDDATGELCQASCIRQLDDVILHETSVANVTSEWMDEEIQRALRELTESRELLDTPRNSVFVEEKHEKQKTVTTTTTSTETSRNTSSRVEFPSMARRTRSTSAARRFN | not soluble
GMSDDLTDAQTAAIPEGFSQLNWSRGFGRQIGPLFEHREGPGQARLAFRVEEHHTNGLGNCHGGMLMSFADMAWGRIISLQKSYSWVTVRLMCDFLSGAKLGDWVEGEGELISEEDMLFTVRGRIWAGERTLITGTGVFKALSARKPRPGELAYKEEA | soluble
MGSDKIHHHHHHMRVLAIRHVEIEDLGMMEDIFREKNWSFDYLDTPKGEKLERPLEEYSLVVLLGGYMGAYEEEKYPFLKYEFQLIEEILKKEIPFLGICLGSQMLAKVLGASVYRGKNGEEIGWYFVEKVSDNKFFREFPDRLRVFQWHGDTFDLPRRATRVFTSEKYENQGFVYGKAVGLQFHIEVGARTMKRWIEAYKDELEKKKIDPRLLLETAEREEKVLKGLLRSLLERMVES | not soluble
MGSDKIHHHHHHMVEQLKPRYSSVWINKIAEVPQDAWDALALPLKTPFLEWDWLNNLETSHSATAKTGWLPNHLTLWRDRTLIAVAPLYIKGHSYGEFVFDHQWAELAERIGVQYYPKLLGMTPFTPAEGYRFLIADGEDEEEITAMMVHEIDSFCVKHNISSCHFLYVDPQWQPVLEKQGFTAWLHHSFIWENSGFQNFDDYLTVFNANQRRNIKRERKAVEKAGLQLQAVTGDAIPKSLFPLMYQFYADTCDKFGWWGSKYLTKQFFEQLHHNYRHRVVFFPAYHEQDPRQPLGMSFCLFKDDRLYGRYWGSFQEIDCLHFDACYYAPIEWAIANGIQSFDPGAGGRHKKRRGFPAAPNYSLHRFYNSRLGQILRPYINEVNQLEEQEIAAINAELPFSQK | not soluble
MSLIDLKQYEFWFLVGSQYLYGLETLKKVEQQASKIVDSLNDDPIFPSKIVLKPVLKSSSEITEIFEKANADPKCAGVIVWMHTFSPSKMWIRGLSINKKPLLHLHTQYNREIPWDTIDMDYMNLNQSAHGDREHGFIHARMRLPRKVVVGHWEEKEVREKIAKWMRVACAIQDGRMGQIVRFGDNMREVASTEGDKVEAQIKLGWSINTWGVGELAERVKAVPEREVEELLKEYREKYIMPEDEYSLKAIREQAKIEIALREFLKEKNAVGFTTTFEDLHDLPQLPGLAVQRLMEEGYGFGAEGDWKAAGLVRAIKVMGTSLPGGTSFMEDYTYHLTPGNELVLGAHMLEVCPTIAKEKPRIEVHPLSIGGKADPARLVFDGQEGPAVNASIVDMGNRFRLVVNKVLSVPIERKMPKLPTARVLWKPLPDFKRATTAWILAGGSHHTAFSTAIDVEYLIDWAEALEIEYVVIDENLDLEDFKKELRWNELYWGLLKREGHHHHHH | soluble
MSTFIRGPICGTDNCPSRLWRIIDGRRTCQYGHVMEGDVEFNDDEDDLNGLGAGVITRRLNLTTNATGSFQSSQLTNSQLLQQQQRQSHKKFKKLIGHEAKLLFLKSFQFILKRQIRWLITEMRFPKEFEHVAKIIWLKILKTINDQPQEELKLQLHMTSTISILYLASTHLSLPVYTCDYIKWICTAKMPYFQASEILPKSWRIQLPNYYVSILEGSISPFNGQLYNKIALTCGMIHFKEFFNSEISCQGLLLKLVMQCALPPEFYFYTKQVIEFEETDIRNLTLWERTDERHTGRVSNHAELRVLSYFMLTINWMLSFDRDRQYPLKWILSLTESLTQRTTTSESIGRNIVKVVYPDKPTSSDYFQWSEEETLEFLKWMEKQFLPTQTKSLHNENGSMEMTIDQKIARRKLYKIFPLDREANHDGEFNDSTHQLTFIEDLQERYAKQTPFFESNKIRDSLNYQEANPPARKEAIGRLLTHIASQLLVDFAISKEQLKDCISRIKNACLHRMN | not soluble
IGEVDLTVRANMTYSKNEIKEYDEENSRYPYKMKYGFRVDQARGLIAEGLFKDYEEIRNRPSQGSGIMPGDIKYKDVNGDGVINGDDEVPIGATTRPNLIYGFGVSAQWKEFDINVHFQGAGKSSFFIDGFTVYPFQEKSWGNILTDVVGNYWSLGTNEDPNAKYPRLSYGGNSNNYRASTYWLRNGSYIRLKNVELGYNIPKRFVNKLHLDRVRLYLMGTNLLTFSDFKLWDPELGSSNGQQYPLSRTVTIGLTVGI | not soluble
MVNTLEGLESTRNLILKENPMRRAAELVARLSADEVTMRAAKYELIKFNRAFQNFMLVLDENIEEILMSNDNSTRIQLKKLPEFPSFSDSFMQEYEKALLNGAEKLKASTSSEKGSIPSVSFSSSISSSSAELSDARCLICLDDVISTEKTIKCNSCRRRFHLDCASQWFKEKSVCPACNRGMLDPTEFPSL | not soluble
